The experiment concerns the target 人CD47 (human) (UniProt Q08722). In words: flow cytometry on red blood cells, commercial B6H12.2 as comparison. In general terms: In flow cytometry, cells or beads pass a laser one at a time.

B1: 商品化抗CD47抗体B6H12.2 (antibody, from another filing)
scFv: EVQLVESGGDLVKPGGSLKLSCAASGFTFSGYGMSWVRQTPDKRLEWVATITSGGTYTYYPDSVKGRFTISRDNAKNTLYLQIDSLKSEDTAIYFCARSLAGNAMDYWGQGTSVTVSSGGGGSGGGGSGGGGSDIVMTQSPATLSVTPGDRVSLSCRASQTISDYLHWYQQKSHESPRLLIKFASQSISGIPSRFSGSGSGSDFTLSINSVEPEDVGVYYCQNGHGFPRTFGGGTKLEIKEQKLISEEDL
As to B1, the 结合率 turned out to be 99.2%.

For the origin of these results see patent CN111087470A.
